Source: publication PMC4930401

Biological target: BF520.1 (human (infant BF520))
Assay: BLI

**Q.** For “BF520.W14.E3 native-like SOSIP trimer (complex)”, which Kd is on record?
**A.** Its Kd is 8 nM.
